Substitutions are numbered along the chain they refer to.
Target: T1, human FcγRIIaH extracellular domain with C-terminal His-tag (human, UniProt P12318 34-217)
T1 construct: also called human FcgRIIaH; FcγRIIa (type H)
T1 sequence: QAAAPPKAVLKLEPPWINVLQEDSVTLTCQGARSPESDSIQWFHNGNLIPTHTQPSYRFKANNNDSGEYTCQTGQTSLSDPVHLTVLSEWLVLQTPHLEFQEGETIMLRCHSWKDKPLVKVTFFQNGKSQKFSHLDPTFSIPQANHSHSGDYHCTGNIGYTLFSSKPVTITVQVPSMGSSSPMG
Experiment: SPR (BIACORE); KD of SG1 / KD of variant;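 note: relative to parent M103205H795-SG1 carrying the SG1 human heavy chain constant region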

B1: M103205H795-MY340/M103202L889-SK1 (antibody, human IgG1, kappa)
heavy: QVTLKESGPVLVKPTETLTLTCTVSGIDLSHDDISWVRQAPGKGLEWVGIISYAGSTYYASWAKGRLTISKDTSKNQVVLTMTNMDPVDTATYYCARGVPAYSHGGDLWGQGTLVTVSSASTKGPSVFPLAPSSKSTSGGTAALGCLVKDYFPEPVTVSWNSGALTSGVHTFPAVLQSSGLYSLSSVVTVPSSSLGTQTYICNVNHKPSNTKVDKKVEPKSCDKTHTCPPCPAPELLLGPSVFLFPPKPKDTLMISRTPEVTCVVVDVSDEDPEVKFNWYVDGVEVHNAKTKPREELYNSTYRVVSVLTVLHQDWLNGKEYKCKVSNKALPKPIEKTISKAKGQPREPQVYTLPPSREEMTKNQVSLTCLVKGFYPSDIAVEWESNGQPENNYKTTPKVLDSDGSFFLYSKLTVDKSRWQQGNVFSCSVMHEALHNHYTQKSLSLSP
light: DIVMTQSPATLSLSPGERATLSCTSSQSVYHANWLSWFQQKPGQPPKLLIYWASTLAYGVPSRFSGSGSGTDFTLTISSLQPEDAATYYCAGGYGGGRYAFGQGTKVEIKRTVAAPSVFIFPPSDEQLKSGTASVVCLLNNFYPREAKVQWKVDNALQSGNSQESVTEQDSKDSTYSLSSTLTLSKADYEKHKVYACEVTHQGLSSPVTKSFNRGEC
notes: Substitutions introduced into M103205H795-SG1, expressed with M103202L889-SK1 as light chain; EU numbering
KD fold (SG1 = 1): 2.2 fold

B2: M103205H795-MY341/M103202L889-SK1 (antibody, human IgG1, kappa)
heavy: B1 heavy with K328T
light: B1 light
notes: as for B1
KD fold (SG1 = 1): 2.7 fold

B3: M103205H795-MY342/M103202L889-SK1 (antibody, human IgG1, kappa)
heavy: B1 heavy with K398M
light: B1 light
notes: as for B1
KD fold (SG1 = 1): 1.9 fold

B4: M103205H795-MY380/M103202L889-SK1 (antibody, human IgG1, kappa)
heavy: B1 heavy with L238N, D270E, L297Q
light: B1 light
notes: as for B1
KD fold (SG1 = 1): 1.5 fold

B5: M103205H795-MY386/M103202L889-SK1 (antibody, human IgG1, kappa)
heavy: B1 heavy with K328T, K398P
light: B1 light
notes: as for B1
KD fold (SG1 = 1): 0.9 fold

B6: M103205H795-MY387/M103202L889-SK1 (antibody, human IgG1, kappa)
heavy: B1 heavy with L238T, S241V, L297Q, K398P
light: B1 light
notes: as for B1
KD fold (SG1 = 1): 2.5 fold

B7: M103205H795-MY388/M103202L889-SK1 (antibody, human IgG1, kappa)
heavy: B1 heavy with L238T, S241I, L297Q, K398P
light: B1 light
notes: as for B1
KD fold (SG1 = 1): 2.1 fold

B8: M103205H795-MY389/M103202L889-SK1 (antibody, human IgG1, kappa)
heavy: B1 heavy with L238T, S241L, L297Q, K398P
light: B1 light
notes: as for B1
KD fold (SG1 = 1): 2.6 fold

B9: M103205H795-MY392/M103202L889-SK1 (antibody, human IgG1, kappa)
heavy: B1 heavy with L238T, L297Q, S300L, K398P
light: B1 light
notes: as for B1
KD fold (SG1 = 1): 1.6 fold

B10: M103205H795-MY400/M103202L889-SK1 (antibody, human IgG1, kappa)
heavy: B1 heavy with L238T, L297Q, P333E, K398P
light: B1 light
notes: as for B1
KD fold (SG1 = 1): 1.6 fold

B11: M103205H795-MY514/M103202L889-SK1 (antibody, human IgG1, kappa)
heavy: B1 heavy with L238T, S241V, L297Q, S300L, K398P
light: B1 light
notes: as for B1
KD fold (SG1 = 1): 2 fold

B12: M103205H795-MY515/M103202L889-SK1 (antibody, human IgG1, kappa)
heavy: B1 heavy with L238T, S300L, K398P
light: B1 light
notes: as for B1
KD fold (SG1 = 1): 3.1 fold

B13: M103205H795-MY516/M103202L889-SK1 (antibody, human IgG1, kappa)
heavy: B1 heavy with L238T, S241V, S300L, K398P
light: B1 light
notes: as for B1
KD fold (SG1 = 1): 3.1 fold

B14: M103205H795-MY520/M103202L889-SK1 (antibody, human IgG1, kappa)
heavy: B1 heavy with P234D, L238T, S241V, K398P
light: B1 light
notes: as for B1
KD fold (SG1 = 1): 1.4 fold

B15: M103205H795-MY521/M103202L889-SK1 (antibody, human IgG1, kappa)
heavy: B1 heavy with P234D, L238T, K398P
light: B1 light
notes: as for B1
KD fold (SG1 = 1): 2.4 fold

B16: M103205H795-MY522/M103202L889-SK1 (antibody, human IgG1, kappa)
heavy: B1 heavy with A233G, L238T, S241V, L297Q, K398P
light: B1 light
notes: as for B1
KD fold (SG1 = 1): 2.9 fold

B17: M103205H795-MY523/M103202L889-SK1 (antibody, human IgG1, kappa)
heavy: B1 heavy with A233G, L238T, S241V, K398P
light: B1 light
notes: as for B1
KD fold (SG1 = 1): 3.6 fold

B18: M103205H795-MY524/M103202L889-SK1 (antibody, human IgG1, kappa)
heavy: B1 heavy with A233G, L238T, K398P
light: B1 light
notes: as for B1
KD fold (SG1 = 1): 6.3 fold

B19: M103205H795-MY525/M103202L889-SK1 (antibody, human IgG1, kappa)
heavy: B1 heavy with A233T, L238T, S241V, L297Q, K398P
light: B1 light
notes: as for B1
KD fold (SG1 = 1): 3.3 fold

B20: M103205H795-MY526/M103202L889-SK1 (antibody, human IgG1, kappa)
heavy: B1 heavy with A233T, L238T, S241V, K398P
light: B1 light
notes: as for B1
KD fold (SG1 = 1): 4.1 fold

B21: M103205H795-MY527/M103202L889-SK1 (antibody, human IgG1, kappa)
heavy: B1 heavy with A233T, L238T, K398P
light: B1 light
notes: as for B1
KD fold (SG1 = 1): 6.3 fold

B22: M103205H795-MY528/M103202L889-SK1 (antibody, human IgG1, kappa)
heavy: B1 heavy with L236W, L238T, L297Q, K398P
light: B1 light
notes: as for B1
KD fold (SG1 = 1): 2 fold

B23: M103205H795-MY529/M103202L889-SK1 (antibody, human IgG1, kappa)
heavy: B1 heavy with L236W, L238T, K398P
light: B1 light
notes: as for B1
KD fold (SG1 = 1): 3 fold

B24: M103205H795-MY530/M103202L889-SK1 (antibody, human IgG1, kappa)
heavy: B1 heavy with L238T, L297Q, K328T, K398P
light: B1 light
notes: as for B1
KD fold (SG1 = 1): 4.1 fold

B25: M103205H795-MY531/M103202L889-SK1 (antibody, human IgG1, kappa)
heavy: B1 heavy with L236W, L238T, L297Q, K328T, K398P
light: B1 light
notes: as for B1
KD fold (SG1 = 1): 2.4 fold

B26: M103205H795-MY532/M103202L889-SK1 (antibody, human IgG1, kappa)
heavy: B1 heavy with L236W, L238T, S241V, L297Q, K398P
light: B1 light
notes: as for B1
KD fold (SG1 = 1): 3.3 fold

Reference: patent US20200317768A1 (published 2020)
